Data from patent US20050203022A1.

Target: TGFβ1 (UniProt P01137)
Assay: cell-based or functional assay

UniProt P01137, sequence (P01137 279-390 limits assumed): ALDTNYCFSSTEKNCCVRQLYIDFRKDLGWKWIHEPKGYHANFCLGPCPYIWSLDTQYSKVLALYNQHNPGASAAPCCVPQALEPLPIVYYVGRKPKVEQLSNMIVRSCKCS

control IgG (antibody)
[3H] thymidine incorporation (CPM) of CCL64 mink lung cells with 0.1 ng/ml TGFβ1, control IgG at 0.02 µg/ml: 43000 CPM | [3H] thymidine incorporation (CPM) of CCL64 mink lung cells with 0.1 ng/ml TGFβ1, control IgG at 0.04 µg/ml: 54400 CPM | [3H] thymidine incorporation (CPM) of CCL64 mink lung cells with 0.1 ng/ml TGFβ1, control IgG at 0.08 µg/ml: 61900 CPM | [3H] thymidine incorporation (CPM) of CCL64 mink lung cells with 0.1 ng/ml TGFβ1, control IgG at 0.16 µg/ml: 52800 CPM | [3H] thymidine incorporation (CPM) of CCL64 mink lung cells with 0.1 ng/ml TGFβ1, control IgG at 0.31 µg/ml: 52400 CPM | [3H] thymidine incorporation (CPM) of CCL64 mink lung cells with 0.1 ng/ml TGFβ1, control IgG at 0.62 µg/ml: 56700 CPM | [3H] thymidine incorporation (CPM) of CCL64 mink lung cells with 0.1 ng/ml TGFβ1, control IgG at 1.25 µg/ml: 51400 CPM | [3H] thymidine incorporation (CPM) of CCL64 mink lung cells with 0.1 ng/ml TGFβ1, control IgG at 2.5 µg/ml: 54400 CPM | [3H] thymidine incorporation (CPM) of CCL64 mink lung cells with 0.1 ng/ml TGFβ1, control IgG at 5 µg/ml: 55100 CPM | [3H] thymidine incorporation (CPM) of CCL64 mink lung cells with 0.1 ng/ml TGFβ1, control IgG at 10 µg/ml: 53600 CPM

recombinant rabbit TGFβRII:Fc fusion protein
[3H] thymidine incorporation (CPM) of CCL64 mink lung cells with 0.1 ng/ml TGFβ1, TGFβRII:Fc at 0.02 µg/ml: 57700 CPM | [3H] thymidine incorporation (CPM) of CCL64 mink lung cells with 0.1 ng/ml TGFβ1, TGFβRII:Fc at 0.04 µg/ml: 49900 CPM | [3H] thymidine incorporation (CPM) of CCL64 mink lung cells with 0.1 ng/ml TGFβ1, TGFβRII:Fc at 0.08 µg/ml: 63800 CPM | [3H] thymidine incorporation (CPM) of CCL64 mink lung cells with 0.1 ng/ml TGFβ1, TGFβRII:Fc at 0.16 µg/ml: 75100 CPM | [3H] thymidine incorporation (CPM) of CCL64 mink lung cells with 0.1 ng/ml TGFβ1, TGFβRII:Fc at 0.31 µg/ml: 119000 CPM | [3H] thymidine incorporation (CPM) of CCL64 mink lung cells with 0.1 ng/ml TGFβ1, TGFβRII:Fc at 0.62 µg/ml: 150000 CPM | [3H] thymidine incorporation (CPM) of CCL64 mink lung cells with 0.1 ng/ml TGFβ1, TGFβRII:Fc at 1.25 µg/ml: 168000 CPM | [3H] thymidine incorporation (CPM) of CCL64 mink lung cells with 0.1 ng/ml TGFβ1, TGFβRII:Fc at 2.5 µg/ml: 179000 CPM | [3H] thymidine incorporation (CPM) of CCL64 mink lung cells with 0.1 ng/ml TGFβ1, TGFβRII:Fc at 5 µg/ml: 179000 CPM | [3H] thymidine incorporation (CPM) of CCL64 mink lung cells with 0.1 ng/ml TGFβ1, TGFβRII:Fc at 10 µg/ml: 182000 CPM | amount required to inhibit the anti-proliferative effect of 0.1 ng/ml TGFβ1 by 50%: 0.5 µg/mL
